Measured values as given in PMC6107290 (PLoS Pathogens, 2018).

Biological target: the molecule itself
Assay: cryo-EM structure

B1: SARS-CoV S glycoprotein S2 subunit (from trypsin cleavage of the S ectodomain) (domain or fragment)
chain: STSQKSIVAYTMSLGADSSIAYSNNTIAIPTNFSISITTEVMPVSMAKTSVDCNMYICGDSTECANLLLQYGSFCTQLNRALSGIAAEQDRNTREVFAQVKQMYKTPTLKYFGGFNFSQILPDPLKPTKRSFIEDLLFNKVTLADAGFMKQYGECLGDINARDLICAQKFNGLTVLPPLLTDDMIAAYTAALVSGTATAGWTFGAGAALQIPFAMQMAYRFNGIGVTQNVLYENQKQIANQFNKAISQIQESLTTTSTALGKLQDVVNQNAQALNTLVKQLSSNFGAISSVLNDILSRLDKVEAEVQIDRLITGRLQSLQTYVTQQLIRAAEIRASANLAATKMSECVLGQSKRVDFCGKGYHLMSFPQAAPHGVVFLHVTYVPSQERNFTTAPAICHEGKAYFPREGVFVFNGTSWFITQRNFFSPQIITTDNTFVSGNCDVVIGIINNTVYDPLQPELDSFKEELDKYFKNHTSPDVDLGDISGINASVVNIQKEIDRLNEVAKNLNESLIDLQELGKYEQYIKWP
stoichiometry N: 3
